Source: patent US20240182536A1 (MURAL ONCOLOGY, published 2024)
Numbering of substitutions follows the chain as printed. Numbers in names are those of the source. Read-outs that look alike come from different tables or passages of the source.

Experiments:
[1] = biological target: T1, human IL-18 binding protein (IL-18BP) (human, UniProt O95998 31-194); experiment: cell-based or functional assay
T1 sequence (looked up): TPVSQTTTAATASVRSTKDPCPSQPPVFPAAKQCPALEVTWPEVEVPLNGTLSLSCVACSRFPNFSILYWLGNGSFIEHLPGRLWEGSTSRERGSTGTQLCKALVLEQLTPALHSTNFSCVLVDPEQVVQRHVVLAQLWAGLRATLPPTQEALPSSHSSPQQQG

[2] = biological target: T2, IL-18 receptors on HEK-Blue IL-18 reporter cells (InvivoGen) (UniProt Q13478 19-541; O95256 20-599); experiment: cell-based or functional assay
T2 sequence (looked up) 1: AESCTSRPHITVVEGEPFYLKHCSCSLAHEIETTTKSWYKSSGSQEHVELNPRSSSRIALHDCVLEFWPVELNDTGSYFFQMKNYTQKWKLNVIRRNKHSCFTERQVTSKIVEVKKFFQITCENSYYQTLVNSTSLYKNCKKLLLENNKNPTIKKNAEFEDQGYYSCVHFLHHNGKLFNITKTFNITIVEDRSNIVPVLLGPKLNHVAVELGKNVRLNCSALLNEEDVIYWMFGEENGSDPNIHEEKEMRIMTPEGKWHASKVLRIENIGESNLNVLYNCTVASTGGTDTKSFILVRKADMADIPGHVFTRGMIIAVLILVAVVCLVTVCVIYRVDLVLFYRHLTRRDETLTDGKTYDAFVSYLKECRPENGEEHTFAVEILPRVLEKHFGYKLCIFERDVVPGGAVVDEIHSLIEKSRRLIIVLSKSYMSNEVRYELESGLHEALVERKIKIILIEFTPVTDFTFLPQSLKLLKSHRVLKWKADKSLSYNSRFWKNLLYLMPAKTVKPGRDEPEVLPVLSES
T2 sequence (looked up) 2: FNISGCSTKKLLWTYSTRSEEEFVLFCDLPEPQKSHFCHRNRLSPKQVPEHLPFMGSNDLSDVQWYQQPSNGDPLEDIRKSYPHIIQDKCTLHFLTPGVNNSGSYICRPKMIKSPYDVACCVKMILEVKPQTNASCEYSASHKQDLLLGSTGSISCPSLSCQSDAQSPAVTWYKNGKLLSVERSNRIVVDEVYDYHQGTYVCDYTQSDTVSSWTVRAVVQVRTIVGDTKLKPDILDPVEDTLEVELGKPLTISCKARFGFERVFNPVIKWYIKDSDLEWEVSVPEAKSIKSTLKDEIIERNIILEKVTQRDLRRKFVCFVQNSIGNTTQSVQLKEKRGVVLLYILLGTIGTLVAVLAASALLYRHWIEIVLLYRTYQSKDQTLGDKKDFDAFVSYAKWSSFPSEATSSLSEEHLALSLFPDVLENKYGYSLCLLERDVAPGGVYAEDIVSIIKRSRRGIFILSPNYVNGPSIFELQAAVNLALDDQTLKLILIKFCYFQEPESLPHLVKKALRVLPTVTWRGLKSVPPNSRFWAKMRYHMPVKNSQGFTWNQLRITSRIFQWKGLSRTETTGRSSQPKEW

[3] = biological target: T1, human IL-18 binding protein (IL-18BP); experiment: cell-based or functional assay; remark: listed apart in the source
[4] = biological target: T3, IL-18 receptor (IL-18Rα and IL-18Rβ) (UniProt Q13478 19-541; O95256 20-599, limits assumed); experiment: cell-based or functional assay
T3 sequence (looked up) 1: T2 sequence (looked up) 1
T3 sequence (looked up) 2: T2 sequence (looked up) 2

[5] = biological target: T1, human IL-18 binding protein (IL-18BP); experiment: Octet BLI
Method: (§1) Octet 96red instrument was used to determine affinities of IL18 proteins to BP or receptors. 5-10 ug/ml analyte proteins were used for loading on Sartorius tips (AHC or SA). […] 120-180 s loading, 200 s association and 800 s dissociation were used for kinetics. 3-7 data points were used to calculate affinities.

[6] = biological target: T4, human IL-18 receptor alpha (IL-18Rα) (human, UniProt Q13478 19-329, limits assumed); experiment: Octet BLI
T4 construct: also called hu IL-18Ra; IL-18R alpha
T4 sequence (looked up): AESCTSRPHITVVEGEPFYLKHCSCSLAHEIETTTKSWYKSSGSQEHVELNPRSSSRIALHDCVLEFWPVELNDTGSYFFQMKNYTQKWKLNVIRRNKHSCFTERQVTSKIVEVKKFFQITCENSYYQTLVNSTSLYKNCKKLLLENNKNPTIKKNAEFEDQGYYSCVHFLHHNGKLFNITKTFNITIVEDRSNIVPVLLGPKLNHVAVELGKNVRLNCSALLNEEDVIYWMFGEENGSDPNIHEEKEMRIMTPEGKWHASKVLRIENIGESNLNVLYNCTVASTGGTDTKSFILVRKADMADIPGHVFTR
Method: as §1

[7] = biological target: T5, human IL-18R alpha/beta pair (IL-18Rab) (human, UniProt Q13478 19-329; O95256 20-356); experiment: Octet BLI
T5 construct: also called hu IL-18Rab
T5 sequence (looked up) 1: T4 sequence (looked up)
T5 sequence (looked up) 2: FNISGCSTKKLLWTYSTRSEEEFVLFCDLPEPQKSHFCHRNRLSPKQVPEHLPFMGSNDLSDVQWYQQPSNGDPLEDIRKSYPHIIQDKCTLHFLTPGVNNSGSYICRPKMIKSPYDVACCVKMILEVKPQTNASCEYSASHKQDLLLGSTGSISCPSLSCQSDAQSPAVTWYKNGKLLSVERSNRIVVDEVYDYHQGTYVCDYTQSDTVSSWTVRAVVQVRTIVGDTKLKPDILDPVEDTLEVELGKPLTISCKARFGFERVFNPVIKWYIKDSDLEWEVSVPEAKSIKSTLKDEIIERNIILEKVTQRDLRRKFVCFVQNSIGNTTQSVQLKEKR
Method: as §1

[8] = biological target: T3, IL-18 receptor (IL-18Rα and IL-18Rβ); experiment: cell-based or functional assay; remark: listed apart in the source
[9] = biological target: T1, human IL-18 binding protein (IL-18BP); experiment: cell-based or functional assay; remark: listed apart in the source
[10] = biological target: T2, IL-18 receptors on HEK-Blue IL-18 …; experiment: cell-based or functional assay; remark: listed apart in the source
[11] = biological target: T1, human IL-18 binding protein (IL-18BP); experiment: cell-based or functional assay; remark: listed apart in the source
[12] = biological target: T2, IL-18 receptors on HEK-Blue IL-18 …; experiment: cell-based or functional assay; remark: listed apart in the source
[13] = biological target: T6, human IL-18 binding protein (human, UniProt O95998 31-194); experiment: cell-based or functional assay
T6 sequence (looked up): T1 sequence (looked up)

[14] = biological target: T7, IL-18 receptors on HEK-Blue IL-18 reporter cells (UniProt Q13478 19-541; O95256 20-599, limits assumed); experiment: cell-based or functional assay
T7 sequence (looked up) 1: T2 sequence (looked up) 1
T7 sequence (looked up) 2: T2 sequence (looked up) 2

[15] = biological target: T1, human IL-18 binding protein (IL-18BP); experiment: Octet BLI; remark: listed apart in the source
[16] = biological target: T4, human IL-18 receptor alpha (IL-18Rα); experiment: Octet BLI; remark: listed apart in the source
[17] = biological target: T5, human IL-18R alpha/beta pair (IL-18Rab); experiment: Octet BLI; remark: listed apart in the source
[18] = biological target: T1, human IL-18 binding protein (IL-18BP); experiment: cell-based or functional assay; remark: listed apart in the source
[19] = biological target: T2, IL-18 receptors on HEK-Blue IL-18 …; experiment: cell-based or functional assay; remark: listed apart in the source
[20] = biological target: T1, human IL-18 binding protein (IL-18BP); experiment: Octet BLI; remark: listed apart in the source
Method: as §1
Select G3/K53-substitution containing IL-18 variants and select G3/K53/N91-substitution containing TL-18 variants were tested for activity in the HEK-blue activity assay and for binding affinity to IL-18BP. As shown in the data of Table 15 and Table 16 below, each variant had similar or better activity than WT IL-18, and retained substantial activity in the presence of IL-18BP.

B1: Comparator 1 (human IL-18 variant M51K, K53S, Q56L, P57A, M60L, S105D, D110S, N111R) (ligand)
chain: YFGKLESKLSVIRNLNDQVLFIDQGNRPLFEDMTDSDCRDNAPRTIFIISKYSDSLARGLAVTISVKCEKISTLSCENKIISFKEMNPPDNIKDTKSDIIFFQRDVPGHSRKMQFESSSYEGYFLACEKERDLFKLILKKEDELGDRSIMFTVQNED
HEK-Blue Ec50 (pM), +IL-18BP (50 nM) [1]: 0.22 pM
HEK-Blue Ec50 (pM), -IL-18BP [2]: 0.15 pM
EC50 pM, IFN gamma expression in PBMCs, + 300 nM BP [3]: 1.82 pM
EC50 pM, IFN gamma expression in PBMCs, no BP [4]: 1.22 pM
binding result [5]: no binding
Kd [6]: 16 nM
Kd [7]: 0.43 nM
EC50 pM, IFN gamma expression in PBMCs [8]: 0.093 pM
Fold Change (BP/NO BP), 50 nM BP [9]: 2.5 fold
Fold Change (BP/NO BP), 300 nM BP [9]: 0.83 fold
HEK-Blue EC50 pM, +50 nM BP [9]: 0.04 pM
HEK-blue EC50 (pM) + 300 nM BP [9]: 0.11 pM
HEK-Blue EC50 pM, NO BP (50 nM BP run) [10]: 0.02 pM
HEK-Blue EC50 pM, NO BP (300 nM BP run) [10]: 0.13 pM
HEK-Blue Activity Assay Ec50 (pM), +300 nM hu IL-18BP [11]: 0.09 pM
HEK-Blue Activity Assay Ec50 (pM), -hu IL-18BP [12]: 0.08 pM

B2: Comparator 1-monospecific KiH (Fc fusion)
chain: B1 chain
HEK-blue EC50 (pM) + 300 nM IL-18BP [13]: 0.03 pM
HEK-blue EC50 (pM) - IL-18BP [14]: 0.03 pM

B3: IL-18 variant G3V, M60K, D157E (ligand)
chain: YFVKLESKLSVIRNLNDQVLFIDQGNRPLFEDMTDSDMRDNAPRTIFIISMYKDSQPRGKAVTISVKSEKISTLSSENKIISFKEMNPPDNIKDTKSDIIFFQRSVPGHDNKMQFESSSYEGYFLASEKERDLFKLILKKEDELGDRSIMFTVQNEE
EC50 pM, IFN gamma expression in PBMCs, + 300 nM BP [3]: 13 pM
EC50 pM, IFN gamma expression in PBMCs, no BP [4]: 6.61 pM
Kd [5]: 87 nM
Kd [6]: 43 nM
Kd [7]: 0.13 nM
Fold Change (BP/NO BP), 50 nM BP [9]: 1.74 fold
Fold Change (BP/NO BP), 300 nM BP [9]: 3.74 fold
HEK-Blue EC50 pM, +50 nM BP [9]: 0.14 pM
HEK-blue EC50 (pM) + 300 nM BP [9]: 0.6 pM
HEK-Blue EC50 pM, NO BP (50 nM BP run) [10]: 0.08 pM
HEK-Blue EC50 pM, NO BP (300 nM BP run) [10]: 0.16 pM
HEK-Blue Activity Assay Ec50 (pM), +300 nM hu IL-18BP [11]: 0.6 pM
HEK-Blue Activity Assay Ec50 (pM), -hu IL-18BP [12]: 0.16 pM

B4: IL-18 variant G3R, K53S (ligand)
chain: B3 chain with V3R, K53S, K60M, E157D
Kd [15]: 4.03 nM
Kd [16]: 0.197 µM
Kd [17]: 0.09 nM
HEK-Blue Ec50 (pM), +IL-18BP (50 nM) [1]: 1.84 pM
HEK-Blue Ec50 (pM), -IL-18BP [2]: 0.31 pM
HEK-Blue Activity Assay Ec50 (pM), +50 nM hu IL-18BP [18]: 1.84 pM
HEK-Blue Activity Assay Ec50 (pM), -hu IL-18BP [19]: 0.31 pM
EC50 pM, IFN gamma expression in PBMCs [8]: 73.8 pM
Kd [20]: 4 nM
koff [20]: 0.00143 s⁻¹
kon [20]: 356000 M⁻¹ s⁻¹

B5: IL-18 variant G3E, K53S (ligand)
chain: B3 chain with V3E, K53S, K60M, E157D
Kd [15]: 396 nM
Kd [16]: 8.92 µM
Kd [17]: 0.31 nM
HEK-Blue Ec50 (pM), +IL-18BP (50 nM) [1]: 4.41 pM
HEK-Blue Ec50 (pM), -IL-18BP [2]: 2.69 pM
HEK-Blue Activity Assay Ec50 (pM), +50 nM hu IL-18BP [18]: 4.41 pM
HEK-Blue Activity Assay Ec50 (pM), -hu IL-18BP [19]: 2.69 pM
EC50 pM, IFN gamma expression in PBMCs [8]: 517 pM
Kd [20]: 396 nM
koff [20]: 0.0311 s⁻¹
kon [20]: 78500 M⁻¹ s⁻¹

B6: G3T/M60K-monospecific KiH (Fc fusion)
chain: B3 chain with V3T, E157D
HEK-blue EC50 (pM) + 300 nM IL-18BP [13]: 2.64 pM
HEK-blue EC50 (pM) - IL-18BP [14]: 0.27 pM

B7: G3T/E6K/K53A-monospecific KiH (Fc fusion)
chain: B3 chain with V3T, E6K, K53A, K60M, E157D
HEK-blue EC50 (pM) + 300 nM IL-18BP [13]: 1.16 pM
HEK-blue EC50 (pM) - IL-18BP [14]: 0.04 pM

B8: G3V/M60K-monospecific KiH (Fc fusion)
chain: B3 chain with E157D
HEK-blue EC50 (pM) + 300 nM IL-18BP [13]: 2.01 pM
HEK-blue EC50 (pM) - IL-18BP [14]: 0.06 pM
